Tests used:
[1] = target: β-amyloid peptide (1-42) conjugated to BSA; assay: competition ELISA on coated Aβ1-42-BSA against biotinylated Mu266, first set of three experiments
[2] = target: β-amyloid peptide (1-42) conjugated to BSA; assay: competition ELISA on coated Aβ1-42-BSA against biotinylated Mu266, second set of three experiments
Aβ 1-40 peptide (human) = assay: KinExA 3000, equilibrium in solution with human soluble Abeta (1-40), 37° C.

IC50 [1] [µg/mL]	IC50 [2] [µg/mL]	Kd (Aβ 1-40 peptide (human)) [nM]	Substance
4.7	3.87		Mouse monoclonal antibody 266 (Mu266)
		0.24	m266-Fab

From US20190161539A1
